{"source": "paper PMC12781765", "binders": {"B1": {"name": "Gαo wild-type (non-tagged), P09471-1 L39_G40insV (protein)", "chain": "MGCTLSAEERAALERSKAIEKNLKEDGISAAKDVKLLLLVGAGESGKSTIVKQMKIIHEDGFSGEDVKQYKPVVYSNTIQSLAAIVRAMDTLGIEYGDKERKADAKMVCDVVSRMEDTEPFSAELLSAMMRLWGDSGIQECFNRSREYQLNDSAKYYLDSLDRIGAADYQPTEQDILRTRVKTTGIVETHFTFKNLHFRLFDVGGQRSERKKWIHCFEDVTAIIFCVALSGYDQVLHEDETTNRMHESLMLFDSICNNKFFIDTSIILFLNKKDLFGEKIKKSPLTICFPEYTGPNTYEDAAAYIQAQFESKNRSPNKEIYCHMTCATDTNNIQVVFDAVTDIIIANNLRGCGLY"}}, "key": {"[1]": {"target": "T1, Venus-tagged Gβ3γ9, P16520;O14610", "T1 chain 1": "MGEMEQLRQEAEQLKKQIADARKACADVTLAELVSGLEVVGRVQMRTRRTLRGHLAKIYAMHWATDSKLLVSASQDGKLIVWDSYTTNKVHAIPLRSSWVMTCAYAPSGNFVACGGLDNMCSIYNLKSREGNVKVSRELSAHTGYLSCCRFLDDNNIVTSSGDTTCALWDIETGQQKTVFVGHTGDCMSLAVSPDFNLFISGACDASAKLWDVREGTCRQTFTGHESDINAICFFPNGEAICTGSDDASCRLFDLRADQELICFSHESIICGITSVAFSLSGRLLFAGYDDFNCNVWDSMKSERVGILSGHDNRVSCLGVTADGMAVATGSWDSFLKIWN", "T1 chain 2": "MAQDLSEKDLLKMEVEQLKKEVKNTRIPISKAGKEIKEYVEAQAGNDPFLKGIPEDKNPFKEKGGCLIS", "assay": "BRET-based Gβ3γ9 displacement assay (competition with GαoG92-NLuc)", "conditions": "chain shown with the change; n = 3; parent: est. 100; read off a plot"}, "[2]": {"target": "GFP-Gβ1γ3 (GFP-tagged Gβ1 and GFP-tagged Gγ3), P62873;P63215", "sequence (chain, as listed by the source, chain 1 of 2)": "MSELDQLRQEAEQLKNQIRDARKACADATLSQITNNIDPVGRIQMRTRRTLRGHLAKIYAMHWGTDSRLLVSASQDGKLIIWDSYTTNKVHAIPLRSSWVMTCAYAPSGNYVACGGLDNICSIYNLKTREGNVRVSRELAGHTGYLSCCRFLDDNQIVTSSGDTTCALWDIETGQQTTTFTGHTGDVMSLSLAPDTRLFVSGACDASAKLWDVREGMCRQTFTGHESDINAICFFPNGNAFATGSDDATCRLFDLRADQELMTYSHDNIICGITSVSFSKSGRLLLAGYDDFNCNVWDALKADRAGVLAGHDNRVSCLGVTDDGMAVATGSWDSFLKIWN", "sequence (chain, as listed by the source, chain 2 of 2)": "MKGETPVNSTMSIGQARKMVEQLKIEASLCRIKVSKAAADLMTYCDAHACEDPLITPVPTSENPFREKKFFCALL", "assay": "co-immunoprecipitation (GFP nanobody IP, Western blot quantification)", "conditions": "chain shown with the change; HEK293T cells; n = 4; parent: est. 1.0; read off a plot"}, "[3]": {"target": "T2, GFP-Ric8A, Q9NPQ8", "T2 chain": "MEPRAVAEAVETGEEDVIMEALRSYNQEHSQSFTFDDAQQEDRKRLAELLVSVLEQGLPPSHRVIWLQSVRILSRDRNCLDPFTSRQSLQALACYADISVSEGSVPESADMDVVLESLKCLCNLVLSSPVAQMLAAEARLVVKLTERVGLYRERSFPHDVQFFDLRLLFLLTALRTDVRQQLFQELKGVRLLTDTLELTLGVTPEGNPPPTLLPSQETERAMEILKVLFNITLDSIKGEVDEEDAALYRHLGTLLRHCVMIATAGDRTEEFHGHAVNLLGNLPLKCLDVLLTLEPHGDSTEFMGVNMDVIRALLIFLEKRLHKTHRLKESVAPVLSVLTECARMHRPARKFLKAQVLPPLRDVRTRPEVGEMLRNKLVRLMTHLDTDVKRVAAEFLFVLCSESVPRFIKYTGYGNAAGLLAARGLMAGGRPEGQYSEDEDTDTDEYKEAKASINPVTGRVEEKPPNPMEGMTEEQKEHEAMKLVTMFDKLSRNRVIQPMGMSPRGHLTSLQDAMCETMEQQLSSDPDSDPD", "assay": "co-immunoprecipitation (GFP nanobody IP, Western blot quantification)", "conditions": "chain shown with the change; HEK293T cells; n = 4; parent: est. 1.0; read off a plot"}}}
{"binder": "B1", "values": [{"measurement": "percent of parent (% of Gαo wild-type)", "setting": "[1]", "value": 30}, {"measurement": "ratio to parent (folds over Gαo wild-type)", "setting": "[2]", "value": 0.29}, {"measurement": "ratio to parent (folds over Gαo wild-type)", "setting": "[3]", "value": 6.2}]}
